Source: patent US9611303B2, “Modified biotin-binding protein” (Japan Tobacco Inc., priority 2009, dated 2017)
“And” between values parts separate entries of the source, which are not always exact repeats. Equal values may be shown once. “Also recorded” adds a separate entry of the source.

What was measured:
[1] = Subunit association by FPLC on Sephacryl S-100HR; format: physicochemical; settings: for Structure (identified by FPLC): Sephacryl S-100HR, 50 mM potassium phosphate, 500 mM NaCl; for Sephacryl (mL), elution peak position: tetramer 44 to 47 mL, dimer 51 to 54 mL, monomer 63 to 66 mL; for share present as monomer: of the total
Method: In order to analyze the subunit association conditions of LATM2, the molecular weight of each LATM2s was measured by FPLC. Sephacryl S-100HR (manufactured by GE Healthcare) was used as a column, a Gel Filtration Calibration Kit LMW (manufactured by GE Healthcare) was used as molecular weight markers, and 50 mM potassium phosphate containing 500 mM NaCl was used as a buffer.
The positions of the peaks of eluted tetramer were defined to be 44 to 47 mL after injection of WT-TM2 as a control. The peak of an eluted monomer appeared at around 63 to 66 mL and the peak of an eluted dimer appeared at around 51 to 54 mL, from result of loading the molecular weight markers.

[2] = Purification of LATM2 with 2-iminobiotin-agarose; format: binding; settings: for Recovery rate (%): Iminobiotin-agarose, binding at pH 12, elution with 50 mM NH4OAC (pH 4); for recovery rates compared with WT: purification with 2-iminobiotin-agarose; for Note (Iminobiotin-agarose): FT = column flow-through fraction
Method: LATM2 was purified through a column charged with 2-iminobiotin-agarose (manufactured by Sigma-Aldrich Corp.) in accordance with the method by Hofmann, et al., (1980). IPTG was added to 25 mL of a culture solution of E. coli transformed with each LATM2 in a final concentration of 1 mM to induce expression. The E. coli cells were collected by centrifugation, suspended in 1.5 mL of 50 mM CAPS (pH 12) containing 50 mM NaCl, and then sonicated. To the supernatant of the disrupted cells, 500 μL of 2-iminobiotin-agarose was added, which was then packed in a column. The column was sufficiently washed with 50 mM CAPS (pH 12) containing 500 mM NaCl, and elution was then performed with 50 mM NH4OAC (pH 4).
(§1) The recovery rate in Table 2 was calculated by dividing the amount of LATM2 protein after purification by the amount of LATM2 protein before purification and was expressed by percent by multiplying the quotient by 100. The degree of purification was the ratio of the amount of LATM2 protein to the total amount of proteins in the purified fraction and was expressed by percent by multiplying the ratio by 100. The recovery rates and the degrees of purification in biotin-agarose were the results after binding at pH 7 and elution with an excess amount of biotin.

[3] = Purification of LATM2 with biotin-agarose; format: binding; settings: for Recover rate (%) / Note (Biotin-agarose): binding at pH 7, recovery with 10 mM biotin; for Note (Biotin-agarose): FT = flow-through
Method: Purification with biotin-agarose (manufactured by Sigma-Aldrich Corp.) was performed by the following procedure. After induced expression of 25 mL of a culture solution of E. coli for each LATM2, the E. coli cells were suspended in 1.5 mL of a 100 mM potassium phosphate buffer (pH 7.0), and then sonicated. To the supernatant of the disrupted cells. 400 μL of biotin-agarose was added, which was followed by upside-down mixing for 1 hr. […]
In TM2 S36A-T78A-D116A, the E. coli cells were suspended in 1.5 mL of 50 mM CAPS (pH 12) containing 50 mM NaCl, and then sonicated. To the disrupted cells, 400 μL of biotin-agarose was added, which was followed by upside-down mixing for 1 hr. The column was sufficiently washed with 50 mM CAPS (pH 12) containing 500 mM NaCl, and elution was then performed with 1 mL of PBS (pH 7.4) containing 10 mM biotin.
In TM2 S36A-D116A, the E. coli cells were suspended in 1.5 mL of a 100 mM potassium phosphate buffer (pH 4.0), and then sonicated. To the pupernatant of the disrupted cells, 400 μL of biotin-agarose was added. Washing was performed with a 100 mM potassium phosphate buffer (pH 4) containing 500 mM NaCl, and elution was performed with 1 mL of PBS (pH 7) containing 10 mM biotin. Biotin binding to LATM2 that has been eluted with an excess amount of biotin was removed by dialysis with a 20 mM potassium phosphate buffer overnight.
as §1

Molecule	Structure (identified by FPLC) [1]	Sephacryl (mL), elution peak position [1]	Recovery rate (%) [2]	recovery rates compared with WT [2]	Recover rate (%) ([3]; Biotin-agarose)	share present as monomer ([1]; FPLC)	binding to 2-iminobiotin-agarose [2]	Note (Iminobiotin-agarose) [2]	also measured
TM2 W108K: TM2 in which the 108th tryptophan was replaced with lysine (protein) MSDVQSSLTGTWYNELNSKMELTANKDGTLTGKYLSKVGDVYVPYPLSGRYNLQPPAGQGVALGWAVSWENSKIHSATTWSGQFFSESSPVILTQWLLSSSTARGDVKESTLVGNDSFTKTAPTEQQIAHAQLHCRAPRLK	Tetramer	45.14 mL	30%	inferior to WT	95%	–	–	–	share present as tetramer ([1]; FPLC): 100%
TM2 A66R-L97T-V113R: TM2 with A66R, L97T and V113R replacements (protein) MSDVQSSLTGTWYNELNSKMELTANKDGTLTGKYLSKVGDVYVPYPLSGRYNLQPPAGQGVALGWRVSWENSKIHSATTWSGQFFSESSPVILTQWTLSSSTARGDVWESTLRGNDSFTKTAPTEQQIAHAQLHCRAPRLK	–	–	0%	–	30%	64.8%	did not bind	To FT	Structure (identified by FPLC) ([1]; dimer peak): dimer,; Structure (identified by FPLC) ([1]; monomer peak): monomer; Sephacryl (mL), elution peak position ([1]; dimer peak): 54.38, mL; Sephacryl (mL), elution peak position ([1]; monomer peak): 67.21 mL
TM2 L97T: TM2 in which the 97th leucine was replaced with threonine (protein) MSDVQSSLTGTWYNELNSKMELTANKDGTLTGKYLSKVGDVYVPYPLSGRYNLQPPAGQGVALGWAVSWENSKIHSATTWSGQFFSESSPVILTQWTLSSSTARGDVWESTLVGNDSFTKTAPTEQQIAHAQLHCRAPRLK	–	–	0%	–	0%	–	–	To FT	binding to biotin-agarose [3]: bound to biotin-agarose; elution from biotin-agarose with an excess amount of biotin [3]: not eluted; Note (Biotin-agarose) [3]: not eluted
TM2 W69K: TM2 in which the 69th tryptophan was replaced with lysine (protein) MSDVQSSLTGTWYNELNSKMELTANKDGTLTGKYLSKVGDVYVPYPLSGRYNLQPPAGQGVALGWAVSKENSKIHSATTWSGQFFSESSPVILTQWLLSSSTARGDVWESTLVGNDSFTKTAPTEQQIAHAQLHCRAPRLK	Tetramer	45.09 mL	5%	inferior to WT	50%	–	–	To FT	recover rate by elution with acetic acid ([3]; Biotin-agarose, elution with acetic acid): recover rate: 95%
TM2 N14A: TM2 in which the 14th asparagine was replaced with alanine (protein) MSDVQSSLTGTWYAELNSKMELTANKDGTLTGKYLSKVGDVYVPYPLSGRYNLQPPAGQGVALGWAVSWENSKIHSATTWSGQFFSESSPVILTQWLLSSSTARGDVWESTLVGNDSFTKTAPTEQQIAHAQLHCRAPRLK	Tetramer	46.24 mL	10%	inferior to WT	50%	–	–	–	–
TM2 A66R-L97T: TM2 double mutant A66R and L97T; not in the list of 30 forms, vector named in b302 (protein) MSDVQSSLTGTWYNELNSKMELTANKDGTLTGKYLSKVGDVYVPYPLSGRYNLQPPAGQGVALGWRVSWENSKIHSATTWSGQFFSESSPVILTQWTLSSSTARGDVWESTLVGNDSFTKTAPTEQQIAHAQLHCRAPRLK	–	–	0%	–	80%	90%	did not bind	To FT	Structure (identified by FPLC) ([1]; dimer peak): dimer,; Sephacryl (mL), elution peak position ([1]; dimer peak): 54.49, mL
TM2 A66R: TM2 in which the 66th alanine was replaced with arginine (protein) MSDVQSSLTGTWYNELNSKMELTANKDGTLTGKYLSKVGDVYVPYPLSGRYNLQPPAGQGVALGWRVSWENSKIHSATTWSGQFFSESSPVILTQWLLSSSTARGDVWESTLVGNDSFTKTAPTEQQIAHAQLHCRAPRLK	–	–	0%	–	50%	about 30%	did not bind	To FT	Structure (identified by FPLC) ([1]; monomer peak): monomer; Structure (identified by FPLC) ([1]; tetramer peak): tetramer,; share present as monomer ([1]; FPLC, listed as A66R): 30%; Sephacryl (mL), elution peak position ([1]; monomer peak): 66.15 mL; Sephacryl (mL), elution peak position ([1]; tetramer peak): 45.50, mL
TM2 V113R: TM2 in which the 113th valine was replaced with arginine (protein) MSDVQSSLTGTWYNELNSKMELTANKDGTLTGKYLSKVGDVYVPYPLSGRYNLQPPAGQGVALGWAVSWENSKIHSATTWSGQFFSESSPVILTQWLLSSSTARGDVWESTLRGNDSFTKTAPTEQQIAHAQLHCRAPRLK	Tetramer	46.49 mL	0%	–	30%	–	did not bind	To FT	–
TM2 W108E: TM2 in which the 108th tryptophan was replaced with glutamic acid (protein) MSDVQSSLTGTWYNELNSKMELTANKDGTLTGKYLSKVGDVYVPYPLSGRYNLQPPAGQGVALGWAVSWENSKIHSATTWSGQFFSESSPVILTQWLLSSSTARGDVEESTLVGNDSFTKTAPTEQQIAHAQLHCRAPRLK	dimer; also recorded: tetramer,	44.69 mL and 52.30, mL	5%	inferior to WT	95%	–	–	To FT	share present as dimer ([1]; FPLC): 67%; share present as tetramer ([1]; FPLC): 33%
TM2 A66R-V113R: TM2 with 66th alanine and 113th valine replaced with arginine (protein) MSDVQSSLTGTWYNELNSKMELTANKDGTLTGKYLSKVGDVYVPYPLSGRYNLQPPAGQGVALGWRVSWENSKIHSATTWSGQFFSESSPVILTQWLLSSSTARGDVWESTLRGNDSFTKTAPTEQQIAHAQLHCRAPRLK	–	–	0%	–	0%	–	did not bind	To FT	binding to biotin-agarose [3]: did not bind; Note (Biotin-agarose) [3]: To FT
